Biological target: Oslo-2 mAb
Assay: peptide array on cellulose membrane (epitope mapping)
Details: chain shown with the change; duplicates; parent: est. 12000; read off a plot

Sequence of Oslo-2 mAb (chain, as listed by the source, chain 1 of 2): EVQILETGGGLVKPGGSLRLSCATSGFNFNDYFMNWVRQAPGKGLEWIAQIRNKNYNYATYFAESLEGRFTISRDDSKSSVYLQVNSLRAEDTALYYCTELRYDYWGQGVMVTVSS
Sequence of Oslo-2 mAb (chain, as listed by the source, chain 2 of 2): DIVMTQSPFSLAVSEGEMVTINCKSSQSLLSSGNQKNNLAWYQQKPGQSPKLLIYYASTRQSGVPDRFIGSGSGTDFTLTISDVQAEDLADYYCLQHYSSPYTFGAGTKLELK

- response: 1700
B1: 20 mer epitope peptide … (region 603-622 in HER2) E619A; E620A (peptide)
chain: GVKPDLSYMPIWKFPDAAGA

From PMC9563779
